Results reported in patent US20260242448A1 (INSTITUTE OF MICROBIOLOGY CHINESE ACADEMY OF SCIENCES, published 2026).

B1: monoclonal antibody L4.65 (antibody, V domains shown)
VH: QITLKESGPTLVKPTQTLTLTCTFSGFSLSTSGVGVAWIRQPPGKALEWLALIYWDNDKRSSPSLNNRLTITKDTSKNQVVLTMTNMDPEDTATYYCAHFFSHYDSSNYYYGSWFDPWGQGTLVTVSS
VL: EIVLTQSPGTLSLSPGERATLSCRASQSFDSRYLGWYQQKSGQAPRLLIYGASSRATGIPDRFSGSGSGTDFTLTISRLEPEDFAVYYCQQFGDSPFTFGQGTKLEIKR
notes: also called monoclonal antibody 65; 65IgG
B2: monoclonal antibody CoV56 (antibody, V domains shown)
VH: EVQLVESGGGVVQPGGSLRLSCAVSGFTFDDYAMHWVRQAPGKGLDWVSLISGDGSYTYYADSVKGRFTISRDSSKNSLYLQMNSLRTEDTALYYCAKAQTPTLWWLQDAFDIWGQGTMVTVSS
VL: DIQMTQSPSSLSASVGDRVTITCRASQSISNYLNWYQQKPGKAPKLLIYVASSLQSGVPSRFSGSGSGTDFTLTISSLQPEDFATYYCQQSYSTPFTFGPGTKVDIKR
notes: also called monoclonal antibody 56; 56IgG

Tests used:
[1] = target: T1, S protein of the SARS-CoV-2 prototype strain on pseudo-virus (SARS-CoV-2 prototype strain, UniProt P0DTC2 14-1273); test: cell-based or functional assay
[2] = target: T2, RBD of the S protein of the 2019 original strain (2019-nCoV) (SARS-CoV-2 (2019-nCoV original strain), UniProt P0DTC2 319-541); test: ELISA on plate-coated RBD (1 µg/mL), HRP anti-human Fc detection, OD450
T2 construct: domain: RBD; also called 2019-nCoV RBD; SARS-CoV-2 RBD

[3] = target: T1, S protein of the SARS-CoV-2 prototype …; test: cell-based or functional assay; remark: listed apart in the source

Binder | Neutralization Effects (IC50) against SARS-CoV-2 pseudo-viruses [1] [ng/mL] | EC50 [2] [pM] | Neutralization activity (IC50) against pseudo-virus [3] [ng/mL]
B1 | 0.709 | 17.3 | 0.97
B2 | 8380 | 41.8 | > 2000
